Assay results taken from publication PMC10527483.

How the values were obtained:
Assay in all cases: pull-down
QKI7 = target: T1, QKI7 (human, UniProt Q96PU8-6 1-325)
T1 sequence: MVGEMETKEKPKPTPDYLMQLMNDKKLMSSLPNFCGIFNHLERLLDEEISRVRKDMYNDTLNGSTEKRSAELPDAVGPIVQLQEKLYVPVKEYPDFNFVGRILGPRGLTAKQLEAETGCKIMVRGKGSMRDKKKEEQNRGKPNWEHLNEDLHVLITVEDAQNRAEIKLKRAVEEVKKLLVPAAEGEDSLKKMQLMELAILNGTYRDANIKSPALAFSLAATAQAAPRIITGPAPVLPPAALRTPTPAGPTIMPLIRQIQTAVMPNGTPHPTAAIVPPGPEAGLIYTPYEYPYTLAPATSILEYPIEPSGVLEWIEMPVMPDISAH

QKI5 = target: T2, QKI5 (human, UniProt Q96PU8 1-341)
T2 sequence: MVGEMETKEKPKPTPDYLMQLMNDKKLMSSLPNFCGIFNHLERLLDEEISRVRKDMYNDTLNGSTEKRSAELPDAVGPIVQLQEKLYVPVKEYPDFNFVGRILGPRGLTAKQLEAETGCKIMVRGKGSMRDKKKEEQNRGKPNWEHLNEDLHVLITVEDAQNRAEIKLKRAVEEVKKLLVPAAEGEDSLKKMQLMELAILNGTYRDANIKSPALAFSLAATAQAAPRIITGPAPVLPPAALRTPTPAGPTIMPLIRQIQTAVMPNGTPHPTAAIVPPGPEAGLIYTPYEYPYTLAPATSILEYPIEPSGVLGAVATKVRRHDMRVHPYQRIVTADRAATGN

QKI6 = target: T3, QKI6 (human, UniProt Q96PU8-9 1-319)
T3 sequence: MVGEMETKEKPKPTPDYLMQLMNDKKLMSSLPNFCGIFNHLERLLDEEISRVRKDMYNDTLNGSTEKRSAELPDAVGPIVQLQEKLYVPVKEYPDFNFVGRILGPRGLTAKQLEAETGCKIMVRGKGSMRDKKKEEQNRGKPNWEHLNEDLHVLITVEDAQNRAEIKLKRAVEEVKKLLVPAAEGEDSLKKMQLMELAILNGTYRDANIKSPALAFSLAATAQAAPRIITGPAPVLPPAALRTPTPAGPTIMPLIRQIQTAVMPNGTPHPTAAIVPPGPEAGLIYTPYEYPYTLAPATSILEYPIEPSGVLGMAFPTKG

Measured: binding result

B1: m7G-Oligo, 60-mer (ssRNA)
RNA: CCAAUAAAAUAUUAACCACCAAUAAAAUAUUAACCAAGAUCCACCAAUAAAAUAUUAACC
modifications: N7-methylguanosine at G38 (the only G)
binds: all assays above
